Legend:
SP cells = experiment: FACS of Hoechst 33342 treated quail SP cells; type: cell-based; conditions: negative control in FACS sorting
Method: SP cells were isolated from quail by FACS isolation relying on Hoechst 33342 and propidium iodide to distinguish different cell populations. Cells were incubated in Hoechst 33342 at 37° C. for 60-90 minutes. Cells were then collected by centrifugation, washed in PBS and resuspended in a propidium iodide solution. As a negative control, a fraction of the primary cells were incubated in parallel with verapamil, which blocks Hoechst 33342 efflux. Sorting was performed on a FACS Advantage Plus flow cytometer and fluorescence of Hoechst 33342 and propidium iodide was measured on a linear scale (Goodell et al. (1996) J. Exp. Med. 183:1797; Goodell et al. (1997) Nat. Med. 3:1337 and Gussoni et al. (1999) Nature 401:390). The cells were then pelleted by centrifugation.

[1] = test system: presumptive heart field of chick embryos; experiment: Implantation of Wnt-expressing cell pellets into the precardiac region of embryos in New culture; type: in vivo; conditions: cell pellets implanted at stage 3+ to 4; in situ hybridization
Description: FIG. 15. Overexpression of Wnt genes blocks cardiogenesis in precardiac mesoderm. (A) Whole-mount in situ hybridization for Nkx-2.5 in chick embryos in which pellets of chick embryo dermal fibroblasts infected with either RCAS-mWnt-3a or control RCAS-AP were implanted into the precardiac region of embryos in New culture at stage 3^+ to 4. […] (B) Red line in A indicates the level of this section. […] (C) Ectopic Wnt expression suppresses cardiogenesis in anterior lateral plate mesoderm explants. Stage 5 anterior lateral plate mesoderm from the precardiac region was infected with either control virus (RCAS-GFP, lane 1; RCAS-AP, lane 3), or RCAS-Wnt-3a (lane 2) or RCAS-Wnt-8c (lane 4). Cultures were carried out in the presence of 200 ng/mL BMP-4 overnight followed by 48 h in 20 ng/mL BMP-4. Transcript levels were evaluated by RT-PCR.
As inhibition of Wnt signaling can induce cardiogenesis in the PLP mesoderm, we hypothesized that expression of Wnt signals in the heart field would have the opposite effect. To address this issue, we examined whether ectopic expression of Wnt-3a in the presumptive heart field affects the expression of Nkx-2.5 in vivo. […] However, these in vivo experiments affected all three germ layers. […]

APMEE explants = experiment: APMEE explant culture, cardiac gene expression by RT-PCR; type: cell-based, chick; conditions: stage 9 APMEE explants; RCAS-Wnt-3a infection (n=24) or coculture with Rat-1/Wnt-1-HA cells (n=12)
stage 7 chick embryos = experiment: Cell pellet implantation into stage 7 chick embryos in New culture (heart looping, DiI tracing, in situ hybridization); type: in vivo; conditions: fibroblasts expressing Wnt-1 implanted into one side of heart-forming region, stage 7

Row | Molecule | Hoechst 33342 dye retention of SP cells (SP cells) | Nkx-2.5 expression in the presumptive heart field [1] | APMEE explants in which cardiogenesis was blocked (APMEE explants) | Nkx-2.5 expression in heart-forming region (stage 7 chick embryos)
1 | COc1ccc(CCN(C)CCCC(C#N)(c2ccc(OC)c(OC)c2)C(C)C)cc1OC (stereo not shown) [verapamil] | blocks the channel(s) responsible for low dye retention | – | – | –
2 | Wnt-1: delivered by Rat-1 cells stably overexpressing Wnt-1 (protein, UniProt P04426 28-370, looked up) Proto-oncogene Wnt-1: ANSSGRWWGIVNIASSTNLLTDSKSLQLVLEPSLQLLSRKQRRLIRQNPGILHSVSGGLQSAVRECKWQFRNRRWNCPTAPGPHLFGKIVNRGCRETAFIFAITSAGVTHSVARSCSEGSIESCTCDYRRRGPGGPDWHWGGCSDNIDFGRLFGREFVDSGEKGRDLRFLMNLHNNEAGRTTVFSEMRQECKCHGMSGSCTVRTCWMRLPTLRAVGDVLRDRFDGASRVLYGNRGSNRASRAELLRLEPEDPAHKPPSPHDLVYFEKSPNFCTYSGRLGTAGTAGRACNSSSPALDGCELLCCGRGHRTRTQRVTERCNCTFHWCCHVSCRNCTHTRVLHECL | – | similarly extinguished endogenous Nkx-2.5 expression | 50% | blocked subsequent expression of Nkx-2.5

Reference: patent US20040014209A1, “Compositions and methods for modulating cell differentiation” (priority 2002, published 2004)
